Measurements reported in IntAct's records for PubMed 28360110.

B1: Solute carrier family 26 member 9 (Homo sapiens), Q7LBE3-1 (parent)
chain: MSQPRPRYVVDRAAYSLTLFDDEFEKKDRTYPVGEKLRNAFRCSSAKIKAVVFGLLPVLSWLPKYKIKDYIIPDLLGGLSGGSIQVPQGMAFALLANLPAVNGLYSSFFPLLTYFFLGGVHQMVPGTFAVISILVGNICLQLAPESKFQVFNNATNESYVDTAAMEAERLHVSATLACLTAIIQMGLGFMQFGFVAIYLSESFIRGFMTAAGLQILISVLKYIFGLTIPSYTGPGSIVFTFIDICKNLPHTNIASLIFALISGAFLVLVKELNARYMHKIRFPIPTEMIVVVVATAISGGCKMPKKYHMQIVGEIQRGFPTPVSPVVSQWKDMIGTAFSLAIVSYVINLAMGRTLANKHGYDVDSNQEMIALGCSNFFGSFFKIHVICCALSVTLAVDGAGGKSQVASLCVSLVVMITMLVLGIYLYPLPKSVLGALIAVNLKNSLKQLTDPYYLWRKSKLDCCIWVVSFLSSFFLSLPYGVAVGVAFSVLVVVFQTQFRNGYALAQVMDTDIYVNPKTYNRAQDIQGIKIITYCSPLYFANSEIFRQKVIAKTGMDPQKVLLAKQKYLKKQEKRRMRPTQQRRSLFMKTKTVSLQELQQDFENAPPTDPNNNQTPANGTSVSYITFSPDSSSPAQSEPPASAEAPGEPSDMLASVPPFVTFHTLILDMSGVSFVDLMGIKALAKLSSTYGKIGVKVFLVNIHAQVYNDISHGGVFEDGSLECKHVFPSIHDAVLFAQANARDVTPGHNFQGAPGDAELSLYDSEEDIRSYWDLEQEMFGSMFHAETLTAL

Variants of: B1
Details: with gopc_human GOPC

Variant	effect of a mutation on the interaction
T789A	decreasing interaction strength
